Source: PMC5605434 (Nature chemical biology, 2017)
Each block holds one molecule with its values, some of them ahead of it.

Experiments:
[1] = target: TPNOX (triphosphopyridine nucleotide oxidase), quintuple mutant of Lactobacillus brevis H2O-forming NADH oxidase (LbNOX) (Lactobacillus brevis)
LbNOX = target: T1, LbNOX (Levilactobacillus brevis, UniProt Q03Q85); assay: X-ray crystal structure; type: binding; conditions: NADH-soaked crystal; His-tag not cleaved
T1 sequence (Q03Q85 1-450): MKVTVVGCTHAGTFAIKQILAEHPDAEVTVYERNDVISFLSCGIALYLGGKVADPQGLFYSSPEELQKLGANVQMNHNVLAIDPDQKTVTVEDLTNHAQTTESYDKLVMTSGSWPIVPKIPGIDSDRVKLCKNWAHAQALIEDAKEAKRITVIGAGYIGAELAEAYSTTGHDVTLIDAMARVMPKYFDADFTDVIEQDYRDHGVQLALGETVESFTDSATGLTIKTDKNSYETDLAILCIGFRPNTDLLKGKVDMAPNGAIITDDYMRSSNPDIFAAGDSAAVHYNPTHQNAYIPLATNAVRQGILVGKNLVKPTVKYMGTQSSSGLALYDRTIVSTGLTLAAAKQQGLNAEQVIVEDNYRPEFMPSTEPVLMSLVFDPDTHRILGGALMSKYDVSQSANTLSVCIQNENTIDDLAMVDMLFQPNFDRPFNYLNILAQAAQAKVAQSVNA

purified protein = substrate: NC(=O)C1=CN([C@@H]2O[C@H](COP(=O)(O)OP(=O)(O)OC[C@H]3O[C@@H](n4cnc5c(N)ncnc54)[C@H](OP(=O)(O)O)[C@@H]3O)[C@@H](O)[C@H]2O)C=CC1; assay: purified protein; conditions: 50 mM NaPi, pH 7.5, 150 mM NaCl, 37 °C, O2 as co-substrate

stoichiometry N [1]: 4
Molecule: TPNOX (triphosphopyridine nucleotide oxidase), quintuple mutant of Lactobacillus brevis H2O-forming NADH oxidase (LbNOX) (enzyme)

Molecule: Cc1cc2nc3c(=O)[nH]c(=O)nc-3n(C[C@H](O)[C@H](O)[C@H](O)COP(=O)(O)OP(=O)(O)OC[C@H]3O[C@@H](n4cnc5c(N)ncnc54)[C@H](O)[C@@H]3O)c2cc1C [FAD]
X-ray crystal structure (LbNOX): can the nicotinamide ring of NADH come into proximity of FAD

B1: LbNOX (Levilactobacillus brevis ATCC 367) (protein)
chain: T1 sequence (Q03Q85 1-450)
Km (purified protein): 621 ± 124 µM
kcat (purified protein): 0.052 ± 0.001 s⁻¹
kcat/Km (purified protein): 83 ± 16 M⁻¹ s⁻¹
